Experiment [1] addresses human anti-β2GPI mAb ILA-3. The experiment is described as follows: cell-based or functional assay.
The target in experiment [2] is human anti-β2GPI mAb ILA-1. Nature of the experiment: competition ELISA, β2GPI-coated plates, 10 µM peptide. (An ELISA detects its analyte on a solid surface through an enzyme-linked reagent.)
In experiment [3] the target is human anti-β2GPI mAb ILA-3. The experiment is described as above.
Experiment [4] addresses human anti-β2GPI mAb ILA-3. The experiment is described as follows: cyto-ELISA on HUVEC coated with 10 µg/ml β2GPI, 10 µM peptide.
For experiment [5], the target named is human anti-β2GPI mAb G-3. Nature of the experiment: cell-based or functional assay.
In experiment [6] the target is human anti-β2GPI mAb G-3. Nature of the experiment: competition ELISA, β2GPI-coated plates, 10 µM peptide.
The target in experiment [7] is human anti-β2GPI mAb G-3. Nature of the experiment: cyto-ELISA on HUVEC coated with 10 µg/ml β2GPI, 10 µM peptide.
Experiment [8] concerns the target human anti-β2GPI mAb ILA-1. The experiment is described as follows: cell-based or functional assay.
Experiment [9] has as its target human anti-β2GPI mAb ILA-1. The experiment is described as follows: cyto-ELISA on HUVEC coated with 10 µg/ml β2GPI, 10 µM peptide.
The target of experiment [10] is human anti-β2GPI mAb ILA-1. Nature of the experiment: competition ELISA, mAb 10 µg/ml preincubated with peptide, β2GPI-coated plates, 10 µM peptide.

In experiment [1], KDKATFGTHDG [synthetic peptide B (monomer), Lys Asp Lys Ala Thr Phe Gly Thr His Asp Gly] returned a % inhibition of adhesion of U937 monocyte cells to HUVEC of 95% and an E-selectin expression by HUVEC (ELISA O.D.) of 0.211 O.D. In addition, in experiment [2], the % inhibition of ILA-1 mAb binding to β2GPI came out at 10%. The % inhibition of ILA-3 mAb binding to β2GPI in experiment [3] was 77%. This molecule had a % inhibition of ILA-3 mAb binding to HUVEC in [4] of 72%.
In experiment [5], CATLRVYKGG [synthetic peptide C (monomer), Cys Ala Thr Leu Arg Val Tyr Lys Gly Gly] gave a % inhibition of adhesion of U937 monocyte cells to HUVEC of 92%, an E-selectin expression by HUVEC (ELISA O.D.) of 0.215 O.D, an ICAM-1 expression by HUVEC (ELISA O.D.) of 0.186 O.D and a VCAM-1 expression by HUVEC (ELISA O.D.) of 0.174 O.D. Moreover, the % inhibition of G-3 mAb binding to β2GPI in experiment [6] was 98%. In [2], the % inhibition of ILA-1 mAb binding to β2GPI is 11%. Moreover, the % inhibition of G-3 mAb binding to HUVEC in [7] came to 92%.
In the case of NTLKTPRVGG [synthetic peptide A (monomer), Asn Thr Leu Lys Thr Pro Arg Val Gly Gly], in [8], the % inhibition of adhesion of U937 monocyte cells to HUVEC came to 84%, the E-selectin expression by HUVEC (ELISA O.D.) was determined as 0.239 O.D, the ICAM-1 expression by HUVEC (ELISA O.D.) came out at 0.204 O.D and the VCAM-1 expression by HUVEC (ELISA O.D.) came to 0.252 O.D. The molecule also displayed a % inhibition of ILA-1 mAb binding to HUVEC in experiment [9] of 95%. Besides, the % inhibition of ILA-1 mAb binding to β2GPI in [10] amounted to 97%.

The values above are taken from patent US20050107584A1.
